Source: patent publication US20220119517A1 (NANJING SANHOME PHARMACEUTICAL, published 2022)
Values belong to the binder of their own block, whether it stands above or below them.

Tests used:
[1] = target: T1, human Claudin18.2 (CLDN18.2), full length, on cells (human); experiment: cellular ELISA on fixed HEK293-CLDN18.2 cells
T1 construct: also called CLDN18.2-FL; HEK293-CLDN18.2 cells
Method: (§1) HEK293-CLDN18.1 and HEK293-CLDN18.2 cells were resuscitated two weeks in advance, cultured with DMEM complete culture medium containing 10% fetal bovine serum at 37° C., 5% CO₂. When the cells grew to 80%-90% confluency, they were digested with 0.5 mM EDTA-PBS (Sigma) at room temperature, centrifuged at 1000 rpm for 5 minutes, the supernatant was discarded. Cells were resuspended in DMEM complete culture medium, the cell concentration was adjusted to 6×10⁵ cells/ml. Cells were plated on 96-well cell plates (Corning) pre-coated with polylysine at 2.5 μg/well, 100 μl per well, incubated at 37° C., 5% CO₂ for 24 hours, making cells evenly and completely plated on the bottom of the well. The supernatant was aspirated, and the cells were fixed with 4% paraformaldehyde at room temperature for 20 minutes, washed 3 times with 200 μl PBS, 2 minutes at each time. The well plates were blocked with 200 μl of 3% BSA-PBS at 37° C. for 1 hour. Each chimeric antibody was diluted with 3% BSA-PBS to a concentration of 6 μg/ml, and diluted in a 6-fold gradient to a total of 7 concentrations. At the same time, IMAB362-similar-hG1 diluted in the same concentration gradient as the positive control, and human IgG1, kappa isotype control antibody (hereinafter referred to as Isotype, provided by CrownBio (Taicang) Co., Ltd.) as the negative control were added to HEK293-CLDN18.2 and HEK293-CLDN18.1 cell plates, respectively. The cells were incubated at 37° C. for 1 hour, washed 5 times with PBS. Incubation with HRP-anti human IgG (Jackson) diluted 1:10000 in blocking solution was performed at 37° C. for 1 hour followed by washing 5 times with PBS. 100 μl of TMB one-component color developing solution was added, protected from light at room temperature for 5-10 minutes, terminated with 50 μl of 2M sulfuric acid, OD450 was read on the microplate reader. Data processing: the original data was put into GraphPad 5.0 software for plotting and calculation.

[2] = target: T2, human Claudin18.1 (CLDN18.1), full length, on cells (human, UniProt P56856 1-261); experiment: cellular ELISA on fixed HEK293-CLDN18.1 cells, HRP-anti human IgG, OD450
T2 construct: HEK293-CLDN18.1 cells carry a fusion with green fluorescent protein (ZsGreen); CHO-K1-CLDN18.1 cells carry pcDNA3.1-CLDN18.1; The cell line is named under assay; also called CLDN18.1-FL; HEK293-CLDN18.1 cells
Method: as §1

[3] = target: T3, antigen protein Claudin18.2-His (human, UniProt P56856-2 1-261, limits assumed); experiment: BLI (Fortebio Octet RED96), antibody on AHC sensor, CLDN18.2 protein in solution, 37 °C
T3 construct: also called CLDN18.2 protein
Method: Another method is to verify the affinity of the humanized antibody above at the protein level. The antibody was immobilized by the AHC sensor, and combined with different concentrations of antigens, and affinity determination was performed according to the manual of Octet RED96.

[4] = target: T1, human Claudin18.2 (CLDN18.2), full …; experiment: FACS on CHO-K1-CLDN18.2 cells, relative Kd from Graphpad fit
Method: (§2) CHO-K1-CLDN18.2 cells and CHO-K1-CLDN18.1 cells (prepared in Example 5) were digested with gastric cancer cell digestion solution at 37° C. for 15 minutes, respectively; terminated with complete culture medium, centrifuged at 1000 rpm for 5 minutes, the supernatant was discarded; the cells were resuspended with 2% fetal bovine serum-PBS diluent, the cells were adjusted to 1×10⁶ cells/ml, 100 μl of cell suspension was added to each well of the 96-well U-shaped-bottom plate; 2% fetal bovine serum-PBS was used to dilute the humanized antibody and the control antibody to final concentrations of 10 μg/ml, 2 μg/ml, 0.4 μg/ml, 0.08 μg/ml and 0.016 μg/ml, respectively, mixed well with the cells in equal volume, incubated at 4° C. for 1 hour; centrifuged at 1000 rpm for 5 minutes, the supernatant was discarded; 200 μl Cell Stain Buffer (Biolegend) was added to each well to wash twice, centrifuged at 1000 rpm for 5 minutes at each time and the supernatant was discarded; 100 μl of PE-anti human Fc antibody (Biolegend) was added, incubated at 4° C. for 1 hour; washed with Cell Stain Buffer (Biolegend) twice, centrifuged at 1000 rpm for 5 minutes at each time and the supernatant was discarded. 300 μl Cell Stain Buffer was added to resuspend the cells, and detected by BD FACS Jazz flow cytometry analyzer. […]

[5] = target: T1, human Claudin18.2 (CLDN18.2), full …; experiment: cell-based or functional assay
[6] = target: T2, human Claudin18.1 (CLDN18.1), full …; experiment: FACS on CHO-K1-CLDN18.1 cells
Text: (§3) Human gastric cancer cells NUGC4 and stably transfected cells CHO-K1-CLDN18.1 (prepared in Example 5) were used respectively, to verify the specificity and affinity of the anti-CLDN18.2 antibodies above at the cellular level by FAGS technology. After antibody affinity maturation and screening in vitro, each antibody can bind to the CLDN18.2 target on NUGC4 cells, but not to CHO-K1-CLDN18.1 cells, as compared with the original 3CHI antibody.

[7] = target: T1, human Claudin18.2 (CLDN18.2), full …; experiment: FACS on NUGC4 cells
Text: as §3

[8] = target: T1, human Claudin18.2 (CLDN18.2), full …; experiment: cell-based or functional assay; remark: listed apart in the source
[9] = target: T2, human Claudin18.1 (CLDN18.1), full …; experiment: FACS on CHO-K1-CLDN18.1 cells, PE-anti human Fc, MFI
Method: (§4) CHO-K1-CLDN18.2 cells and CHO-K1-CLDN18.1 cells (prepared in Example 5) were digested with gastric cancer cell digestion solution at 37° C. for 15 minutes, respectively; terminated with complete culture medium, centrifuged at 1000 rpm for 5 minutes, the supernatant was discarded; the cells were resuspended with 2% fetal bovine serum-PBS diluent, the cells were adjusted to 1×10⁶ cells/ml, 100 μl of cell suspension was added to each well of the 96-well U-shaped-bottom plate; 2% fetal bovine serum-PBS was used to dilute the humanized antibody and the control antibody to final concentrations of 10 μg/ml, 2 μg/ml, 0.4 μg/ml, 0.08 μg/ml and 0.016 μg/ml, respectively, mixed well with the cells in equal volume, incubated at 4° C. for 1 hour; centrifuged at 1000 rpm for 5 minutes, the supernatant was discarded; 200 μl Cell Stain Buffer (Biolegend) was added to each well to wash twice, centrifuged at 1000 rpm for 5 minutes at each time and the supernatant was discarded; 100 μl of PE-anti human Fc antibody (Biolegend) was added, incubated at 4° C. for 1 hour; washed with Cell Stain Buffer (Biolegend) twice, centrifuged at 1000 rpm for 5 minutes at each time and the supernatant was discarded. 300 μl Cell Stain Buffer was added to resuspend the cells, and detected by BD FACS Jazz flow cytometry analyzer.

[10] = target: T3, antigen protein Claudin18.2-His; experiment: BLI (Fortebio Octet RED96), antibody on AHC sensor, Claudin18.2-His in solution, 37 °C
Method: Next, antibodies were immobilized by the AHC sensor, and then combined with different concentrations of antigens, and determination of the affinity was performed according to the manual of Octet RED96.

[11] = target: T1, human Claudin18.2 (CLDN18.2), full …; experiment: FACS on CHO-K1-CLDN18.2 cells, Graphpad fit
Method: as §2

[12] = target: T1, human Claudin18.2 (CLDN18.2), full …; experiment: FACS on CHO-K1-CLDN18.2 cells, PE-anti human Fc, MFI
Method: as §4

B1: 1CHI (antibody, V domains shown)
VH: QIQLVQSGPELKKPGETVKISCKASGYTFTNYGMNWVKQAPGKGLKWMGWINTYTGEPTYADDFKGRFAFSLETSASTAYLQINNLKNEDMATYFCARDGQLGLRFAYWGQGTLVTVSA
VL: NIMMTQSPSSLAVSAGEKVTMSCKSSQSVLYSSNQKNYLAWYQQKPGQSPKLLIYWASTRESGVPDRFTGSGSGTDFTLTISSVQAEDLAVYYCHQYLSSRTFGGGTKLEIK
notes: Human-murine chimeric antibody with the constant region of human IgG1; also called chimeric antibody of B4B10G3
EC50 [1]: 0.55 nM | binding result [2]: no binding (tested: 6000 ng/ml)

B4: 3CHI (antibody, V domains shown)
VH: EVKLVESGGGLVQPGGSLKLSCAASGFTFSDYGMAWVRQAPRKGPEWVAFISNLAYSIYYADTVTGRFTISRENAKNTLYLEMSSLRSEDTAMYYCARLGYGNSFAYWGQGTLVTVSA
VL: DIVMTQSPSSLTVTAGEKVTMSCKSSQSLLNSGNQKNYLTWYQQKPGQPPKLLIYWASTRESGVPDRFTGSGSGTDFTLTISSVQAEDLAVYYCQNDYSYPLTFGAGTKLELK
notes: Human-murine chimeric antibody with the constant region of human IgG1; also called chimeric antibody of S5H3B6; original 3CHI antibody
EC50 [1]: 0.08 nM | MFI (CLDN18.1) [6]: 76 MFI | binding result [2]: no binding (tested: 6000 ng/ml) | MFI (CLDN18.2) [7]: 2510 MFI | in-vitro ADCC activity, Jurkat-CD16A/NF luciferase reporter, EC50 [8]: 0.54 nM | in-vitro ADCC activity, Jurkat-CD16A/NF luciferase reporter, Top [8]: 212000

B5: Hu330-3 (antibody, V domains shown)
VH: EVQLLESGGGLVQPGGSLRLSCAASGFGFSDYGMAWVRQAPGKGLEWVSFISNSAYSIYYADTVTGRFTISRDNSKNTLYLQMNSLRAEDTAVYYCARLGRGNSFAYWGQGTLVTVSS
VL: DIVMTQSPDSLAVSLGERATINCKSSQSLLNSGNQKNYLTWYQQKPGQPPKLLIYWGSTRESGVPDRFSGSGSGTDFTLTISSLQAEDVAVYYCQNELFYPLTFGQGTKLEIK
notes: Humanized full antibody; also called humanized antibody Hu330-3
binding result [9]: no binding | binding result [12]: binds

B6: Hu330-5 (antibody, V domains shown)
VH: EVQLVESGGGLVQPGGSLRLSCAASGFGFSDYGMAWVRQAPGKGLEWVSFISNSAYSIYYADTVTGRFTISRDNAKNSLYLQMNSLRAEDTAVYYCARLGRGNSFAYWGQGTLVTVSS
VL: DIVMTQSPLSLPVTLGQPASISCKSSQSLLNSGNQKNYLTWYQQRPGQSPRLLIYWGSTRESGVPDRFSGSGSGTDFTLKISRVEAEDVGVYYCQNELFYPLTFGQGTKLEIK
notes: Humanized full antibody; also called humanized antibody Hu330-5
binding result [9]: no binding | EC50 (read off the curve) [12]: ~0.2 µg/mL

Continued, values first:

EC50 [1]: 1.75 nM | binding result [2]: no binding (tested: 6000 ng/ml)
B2: 18CHI (antibody, V domains shown)
VH: QVQLKESGPGLVAPSQSLSITCTVSGFSLTSYGVSWVRQPPGKGLEWLGVIWGDGSTNYHSALISRLSISKDNSKSQVFLKLNSLQTDDTATYYCAGGLRLWFAYWGQGTLVTVSA
VL: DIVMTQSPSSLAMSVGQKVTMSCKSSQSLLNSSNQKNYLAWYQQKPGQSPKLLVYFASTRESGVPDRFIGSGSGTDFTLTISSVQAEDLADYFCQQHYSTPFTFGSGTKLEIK
notes: Human-murine chimeric antibody with the constant region of human IgG1; also called chimeric antibody of C40B10D9

Kd [3]: 0.249 nM | koff [3]: 3.23e-05 s⁻¹ | kon [3]: 130000 M⁻¹ s⁻¹ | Kd [4]: 1.6 nM | ADCC activity by luciferase labeling, EC50 [5]: 0.18 nM | ADCC activity by luciferase labeling, Top [5]: 64500 | MFI (CLDN18.1) [6]: 49 MFI | MFI (CLDN18.2) [7]: 63700 MFI | in-vitro ADCC activity, Jurkat-CD16A/NF luciferase reporter, EC50 [8]: 0.22 nM | in-vitro ADCC activity, Jurkat-CD16A/NF luciferase reporter, Top [8]: 215000 | binding result [9]: no binding | Kd [10]: 0.84 nM | koff [10]: 0.000117 s⁻¹ | kon [10]: 139000 M⁻¹ s⁻¹ | Bmax (MFI) [11]: 10800 MFI
B3: 330CHI (antibody, human IgG1, V domains shown)
VH: EVKLVESGGGLVQPGGSLKLSCAASGFGFSDYGMAWVRQAPRKGPEWVAFISNSAYSIYYADTVTGRFTISRENAKNTLYLEMSSLRSEDTAMYYCARLGRGNSFAYWGQGTLVTVSA
VL: DIVMTQSPSSLTVTAGEKVTMSCKSSQSLLNSGNQKNYLTWYQQKPGQPPKLLIYWGSTRESGVPDRFTGSGSGTDFTLTISSVQAEDLAVYYCQNELFYPLTFGAGTKLELK
notes: chimeric with the constant region of human IgG1; also called chimeric antibody 330CHI

binding result [9]: no binding | EC50 (read off the curve) [12]: ~0.2 µg/mL
B7: Hu330-6 (antibody, V domains shown)
VH: EVQLLESGGGLVQPGGSLRLSCAASGFGFSDYGMAWVRQAPGKGLEWVSFISNSAYSIYYADTVTGRFTISRDNSKNTLYLQMNSLRAEDTAVYYCARLGRGNSFAYWGQGTLVTVSS
VL: DIVMTQSPLSLPVTLGQPASISCKSSQSLLNSGNQKNYLTWYQQRPGQSPRLLIYWGSTRESGVPDRFSGSGSGTDFTLKISRVEAEDVGVYYCQNELFYPLTFGQGTKLEIK
notes: Humanized full antibody; also called humanized antibody Hu330-6
